This passage reports Kd results from paper PMC10303109.

The target of the data set is SARS-CoV-2 spike RBD wild type (SARS-CoV-2 (Wuhan strain)) (UniProt P0DTC2). Briefly: filter binding.

Usually Kd stands for a measure of binding affinity in units of concentration. Read a low Kd as tighter binding. On to “CTGUCGGUAAGGGAGCUAGUGUAUGCCCCUGAGUUGGGGAUAUCACCGACAG [AM047-0]”, for which the Kd (11 Nap-dU in place of dT) amounted to 0.02 nM.
Consider “TATCGAGCGTCCTGCCTTTGCGGAGGUGAACCUUACGUUCAACUGGAUCGUGUGUAGGUACACCGACAGCCACCCAGAAA [AM032-0]”, for which the Kd (11 Nap-dU (5-[N-(1-naphthylmethyl)carboxamide]-2'-deoxyuridine) in place of dT) came to 0.78 nM.
